Laboratory results published in paper PMC6625990, “Structural underpinnings of Ric8A function as a G-protein α-subunit chaperone and guanine-nucleotide exchange factor” (Nature Communications, 2019).
Like-named read-outs stand apart in the source and are kept apart here. Blank lines part the entries; values can stand above or below the substance they belong to. No end group written: not given here.

Key:
[1] = molecular target: T1, Ric8A1–492 (Bos taurus, UniProt Q5E9J8); experiment: BLI: biotinylated Gα C-terminal peptides (Gαt333–350, Gαs363–380, C1, C2) on streptavidin biosensor binding Ric8A1–492; design: species or system bovine; settings: Octet RED96, N-terminally biotinylated peptide on streptavidin biosensor, 20 mM Tris, 150 mM KCl, 5% glycerol, 1 mM TCEP, 0.5 mg/ml BSA, pH 8.0, 26 °C, 1:1 binding model, mean ± SD, read-out: association constant (ka)
T1 construct: His6 (N); made in house; host or cells: E. coli BL21(DE3)
T1 sequence (Q5E9J8 1-492): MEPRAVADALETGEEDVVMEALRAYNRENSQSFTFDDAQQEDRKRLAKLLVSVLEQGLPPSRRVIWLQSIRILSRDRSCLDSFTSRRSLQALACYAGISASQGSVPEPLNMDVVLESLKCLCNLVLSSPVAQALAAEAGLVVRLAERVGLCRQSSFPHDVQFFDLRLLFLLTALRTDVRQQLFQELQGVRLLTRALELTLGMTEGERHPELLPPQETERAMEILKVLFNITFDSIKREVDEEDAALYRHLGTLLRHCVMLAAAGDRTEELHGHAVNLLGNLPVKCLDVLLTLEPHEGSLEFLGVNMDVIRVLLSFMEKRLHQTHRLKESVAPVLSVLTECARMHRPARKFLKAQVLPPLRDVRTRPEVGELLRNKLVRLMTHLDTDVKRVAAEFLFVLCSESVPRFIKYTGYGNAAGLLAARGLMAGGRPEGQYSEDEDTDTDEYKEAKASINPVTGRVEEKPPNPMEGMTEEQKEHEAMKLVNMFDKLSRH
Protocol: An Octet RED96 system and streptavidin (SA)-coated biosensors (FortéBio, Menlo Park, CA) were used to measure association and dissociation kinetics for Gα peptides or the full-length Avi-tagged Gαt in relation to Ric8A1–492, Ric8A1–452, and Ric8A1–426. To obtain the Avi-tagged Gαt, Gαt was cloned into modified pET21a vector with the N-terminal His6-tag followed by the Avi tag and TEV cleavage site[59]. The Avi-tagged I340Q/N343H mutant of Gαt was prepared by QuikChange protocol. BL21(DE3) cells for expression of the Avi-tagged Gαt were grown in 2TY media supplemented with biotin (10 mg/liter), induced at OD600 of 0.6 with 50 µM IPTG and further grown overnight at 16 °C. Binding studies were performed in 20 mM Tris, 150 mM KCl, 5% glycerol, 1 mM TCEP, 0.5 mg/ml BSA, pH 8.0. […] For each concentration of Ric8A1–492, dissociation rate constant (kd) values were calculated from the corresponding dissociation phases of the curves. These kd values were used to calculate the association rate constant (ka) values from the association phases for each concentration according to the equation1 ka=kobserved-kd∕Ric8A1-492 The average ka and kd were calculated as means of the individual ka and kd values for all curves. Equilibrium dissociation constant KD was calculated as mean kd/mean ka. […]

[2] = molecular target: T1, Ric8A1–492; experiment: DSF: thermal stabilization of Ric8A1–492 by Gαt C-terminal peptides; format: binding, bovine
Protocol: Fig. 1 Interaction of Ric8A with the C-terminus of Gα. a Thermal denaturation, as determined by differential scanning fluorimetry (DSF), of 8.7 µM Ric8A1–492 in the absence (black) or presence of 50 µM Gαt340–350 (blue) or Gαt333–350 (red). RFU – relative fluorescence units. Average normalized curves are shown. The Tm values (°C) are shown as mean ± SD (n = 3). b Kinetics of association and dissociation for Ric8A1–492 and biotinylated Gαt333–350 coupled to a streptavidin biosensor as determined using BLI. Representative curves are shown.
Stabilities of Ric8A constructs with and without peptide ligands were assessed using differential scanning fluorimetry (DSF), in which an increase in fluorescence of the Sypro Orange dye is measured. Ric8A1–492, Ric8A1–452 and Ric8A1–426 in 20 mM Tris-HCl (pH 7.5) buffer containing 150 mM KCl, 5% glycerol, and 1 mM TCEP with and without peptide were used at a final concentration of 0.5 mg/ml and were supplemented with a 1000-fold dilution of Sypro Orange dye (Invitrogen). Temperature was increased at 1 °C/minute and fluorescence signals were recorded using real-time PCR (C1000 Touch thermal cycler, Bio Rad), with the cycler set to FRET mode and the excitation wavelength set at 450–490 nm and the emission wavelength at 560–580 nm.

[3] = molecular target: T1, Ric8A1–492; experiment: SEC complex formation of Gαt C-terminal fusion proteins with Ric8A1–492; format: binding, bovine; settings: size-exclusion chromatography elution profiles
Description: The C-terminal 18-mer peptide of Gαi corresponding to Gαt333–350, was previously shown to bind to Ric8A[26]. To identify C-terminal constructs of Gα that are suitable for crystallization with Ric8A, we tested one in which the 11 C-terminal residues of Gαt were fused to the B1 domain of Streptococcal protein G (GB1-Gαt340–350) and a second in which the 24 C-terminal residues of Gαt were fused to MBP (MBP-Gαt327–350). For Ric8A, we used a construct that is truncated at the C-terminus (Ric8A1–492) and that had been reported to retain the full functionality of Ric8A[26].
MBP-Gαt327–350 was purified by Ni-NTA chromatography followed by SEC using a HiLoad 16/600 Superdex 200 pg column equilibrated with 20 mM Tris-HCl (pH 7.5) buffer containing 100 mM NaCl, 1 mM EDTA, and 2 mM TCEP. Ric8A1–492/MBP-Gαt327–350 complexes were prepared by mixing the proteins at a 1:1.5 molar ratio in 5 mM maltose and loading the mixture onto a HiLoad 16/600 Superdex 200 pg column equilibrated with 20 mM Tris-HCl (pH 7.5) buffer containing 150 mM KCl, 5% glycerol, and 1 mM TCEP.
75 KDa Peak 1 Peak 2 75 KDa Peak 1 Peak 2
Supplementary Figure 1. Ric8A1-492 forms complexes with GB1-tagged Gαt340-350 andMBP-taggedGαt333-350. […] (B) Peak fractions in A analyzed by SDS-PAGE. […] (D) Peak fractions in C analyzed by SDS-PAGE. […]

[4] = molecular target: Ric8A; settings: read-out: KD previously estimated; cited from earlier work
[5] = system: Ric8A1–452; experiment: DSF: thermal stabilization of Ric8A1–452 by Gαt333–350; format: binding, bovine; settings: 9.1 µM Ric8A1–452, 50 µM peptide, mean ± SD
Protocol: Stabilities of Ric8A constructs with and without peptide ligands were assessed using differential scanning fluorimetry (DSF), in which an increase in fluorescence of the Sypro Orange dye is measured. […] Temperature was increased at 1 °C/minute and fluorescence signals were recorded using real-time PCR (C1000 Touch thermal cycler, Bio Rad), with the cycler set to FRET mode and the excitation wavelength set at 450–490 nm and the emission wavelength at 560–580 nm.

[6] = molecular target: T1, Ric8A1–492; experiment: BLI: Avi-tagged I340Q/N343H mutant of Gαt binding Ric8A1–492; design: species or system bovine
Protocol: An Octet RED96 system and streptavidin (SA)-coated biosensors (FortéBio, Menlo Park, CA) were used to measure association and dissociation kinetics for Gα peptides or the full-length Avi-tagged Gαt in relation to Ric8A1–492, Ric8A1–452, and Ric8A1–426. To obtain the Avi-tagged Gαt, Gαt was cloned into modified pET21a vector with the N-terminal His6-tag followed by the Avi tag and TEV cleavage site[59]. The Avi-tagged I340Q/N343H mutant of Gαt was prepared by QuikChange protocol. BL21(DE3) cells for expression of the Avi-tagged Gαt were grown in 2TY media supplemented with biotin (10 mg/liter), induced at OD600 of 0.6 with 50 µM IPTG and further grown overnight at 16 °C. Binding studies were performed in 20 mM Tris, 150 mM KCl, 5% glycerol, 1 mM TCEP, 0.5 mg/ml BSA, pH 8.0. All steps were performed at 26 °C, with biosensors stirred into 0.2 ml of sample in each well at 1000 rpm, and at a data acquisition rate of 5.0 Hz. N-terminally biotinylated Gαt333–350, Gαs363–380, C1 peptide and C2 peptide were loaded onto SA sensors at a concentration of 0.05, 0.05, 0.005, and 0.01 mg/ml for 40–90 seconds. Data for association and dissociation phases of the assay were collected as shown in Fig. 1b and Supplementary Figs. 8, 11, 12, and 14. To correct for baseline drift and non-specific binding, reference sensors lacking bound Gα peptide were used in the BLI assays with Ric8A proteins at the highest concentrations. Kinetic data fitting was performed using FortéBio Data Analysis software 10.0. For each concentration of Ric8A1–492, dissociation rate constant (kd) values were calculated from the corresponding dissociation phases of the curves. These kd values were used to calculate the association rate constant (ka) values from the association phases for each concentration according to the equation1 ka=kobserved-kd∕Ric8A1-492 The average ka and kd were calculated as means of the individual ka and kd values for all curves. Equilibrium dissociation constant KD was calculated as mean kd/mean ka. Steady-state data fitting was performed using the GraphPad Prism 7 software with the equation for one site specific binding.
Supplementary Figure 13. (A) Kinetics of association and dissociation of Ric8A1-492 and the Avi-tagged I340Q/N343H mutant of Gαt coupled to a streptavidin biosensor as determined using BLI. Representative experiment is shown. (B) The steady-state binding curve. For experiments performed in […]
(1 picture or pasted object on this page, not shown here)

- kon [1]: 130000 ± 3e+09 M⁻¹ s⁻¹
- stabilization effect (Tm shift) on Ric8A1–492 [2]: ~ 9 °C
Substance: DAVTDIIIKENLKDCGLF [Gαt333–350]

Substance: GB1-Gαt340–350: 11 C-terminal residues of Gαt fused to the B1 domain of Streptococcal protein G (IKENLKDCGLF; also: fused to GB1 (B1 domain of protein G), end not given here)
- complex formation with Ric8A1–492 (in words) [3]: formed complexes with Ric8A1–492 at nearly 1:1 stoichiometry

Substance: Gα C-terminus: C-terminal 18-mer peptide of Gαi previously shown to bind to Ric8A (ref 26) (DAVTDVIIKNNLKDCGLF; UniProt P63096 337-354, looked up, fragment)
- Kd [4]: 12000 nM

- Tm of Ric8A1–492 in the presence of peptide ([2]; 8.7 µM Ric8A1–492, 50 µM peptide, mean ± SD (n = 3)): 48.0 ± 0.3 °C
- mean Tm of Ric8A1-492 + peptide ([2]; source data, mean of 3 replicates): 48 C
- Tm (C ) of Ric8A1-492 + peptide ([2]; source data, replicate 1): 48.1 C
- Tm (C ) of Ric8A1-492 + peptide ([2]; source data, replicate 2): 47.69 C
- Tm (C ) of Ric8A1-492 + peptide ([2]; source data, replicate 3): 48.35 C
Substance: Gαt340–350: 11-mer C-terminal peptide of Gαt (IKENLKDCGLF)
- Tm of Ric8A1–452 in the presence of peptide [5]: 55.75 °C

- Kd ([6]; BLI steady state, Avi-tagged mutant on streptavidin biosensor, mean ± SD, n = 3 (triplicate), read-out: KD for Ric8A1–492): 2.3 ± 0.4 µM
- Kd ([6]; BLI, representative experiment (Suppl. Fig. 13B), read-out: KD, steady-state binding curve): 2.6 µM
- Kd ([6]; Suppl Fig 13B BLI steady state, replicate 1, read-out: KD uM (stady state)): 1.95 µM
- Kd ([6]; Suppl Fig 13B BLI steady state, replicate 2, read-out: KD uM (stady state)): 2.3 µM
- Kd ([6]; Suppl Fig 13B BLI steady state, replicate 3, read-out: KD uM (stady state)): 2.66 µM
- decrease of affinity for Ric8A1–492 ([6]; relative to Gαt): about 100 fold
Substance: I340Q/N343H: Avi-tagged double I340Q/N343H mutant of full-length Gαt

Substance: MBP-Gαt327–350: 24 C-terminal residues of Gαt fused to MBP (NVKFVFDAVTDIIIKENLKDCGLF; not fully specified (N-terminus); also: N-terminal fusion to modified MBP via AAAH linker, His6 tag)
- complex formation with Ric8A1–492 (in words) [3]: formed complexes with Ric8A1–492 at nearly 1:1 stoichiometry
